Data published in US20140056920A1 (Sanofi, published 2014).

Molecular target: T1, mouse IL-4Rα (mouse, UniProt P16382 26-233, limits assumed)
T1 construct: also called mouse IL-4Rα protein; mIL-4Rα
T1 sequence (looked up): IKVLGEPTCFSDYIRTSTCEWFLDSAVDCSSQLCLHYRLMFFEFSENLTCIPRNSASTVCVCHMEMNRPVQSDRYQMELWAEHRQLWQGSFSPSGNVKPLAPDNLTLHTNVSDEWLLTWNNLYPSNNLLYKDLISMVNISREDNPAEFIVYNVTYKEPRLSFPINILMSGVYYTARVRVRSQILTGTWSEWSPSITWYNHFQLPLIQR
Test: not described (stated in Materials and Methods of Example 4)

binding result: no binding
B1: mAb1 (human anti-IL-4R antibody H1H098-b) (antibody, V domains shown)
VH: EVQLVESGGGLEQPGGSLRLSCAGSGFTFRDYAMTWVRQAPGKGLEWVSSISGSGGNTYYADSVKGRFTISRDNSKNTLYLQMNSLRAEDTAVYYCAKDRLSITIRPRYYGLDVWGQGTTVTVS
VL: DIVMTQSPLSLPVTPGEPASISCRSSQSLLYSIGYNYLDWYLQKSGQSPQLLIYLGSNRASGVPDRFSGSGSGTDFTLKISRVEAEDVGFYYCMQALQTPYTFGQGTKLEIK
notes: also called anti-IL-4R antibody mAb1; REGN668/SAR231893
